B1: Hairpin Ribozyme (parent)
chain: GUCCUCUUUCACGUGCGCGUGAAAGAGAGAAGUGAACCAGAGAAACACACGUUGUGGUAUAUUACCUGGUA

Variants of B1 are the subject of the data set. The data set can be described thus: self-cleavage, relative activity (ratio to wild type); higher = more cleavage; co-transcriptional.
Take U2C U55A: the self-cleavage worked out at 0.0763.

In the case of G34U C65G, the self-cleavage came to 1.35.

With G1U U62G, the self-cleavage came out at 0.163.

Take C4U A23U: the self-cleavage was determined as 0.315.

Regarding C18U A44G, the self-cleavage turned out to be 0.113.

A39C A47C: the self-cleavage turned out to be 0.207.

In the case of G40A A71U, the self-cleavage came to 0.198.

Regarding G25A U58A, the self-cleavage came out at 0.376.

On to A11C G29A, for which the self-cleavage turned out to be 0.128.

For the variant U8G G17C, the self-cleavage was 0.23.

For the variant A26C G69A, the self-cleavage was 0.327.

Turning to A36G C50G, the self-cleavage was found to be 0.382.

Regarding C10U C16U, the self-cleavage worked out at 0.871.

For C50G U67C, the self-cleavage was 0.0994.

G1C C16U: the self-cleavage is 0.198.

Take U20G U53A: the self-cleavage turned out to be 0.927.

For the variant C18A U67C, the self-cleavage turned out to be 0.274.

Consider G19A A28U, for which the self-cleavage stood at 0.408.

Regarding A22C A43U, the self-cleavage is 0.15.

Regarding A30G A35U, the self-cleavage was determined as 0.0439.

With G1A U2G, the self-cleavage is 0.895.

Consider G17A G19A, for which the self-cleavage was found to be 0.962.

Take U20C G56A: the self-cleavage was 0.255.

On to U8A A31C, for which the self-cleavage amounted to 0.0591.

Consider U2A C66G, for which the self-cleavage is 0.161.

For C12G A35U, the self-cleavage is 0.731.

Regarding U7G G68C, the self-cleavage is 0.224.

Consider U8C A61C, for which the self-cleavage is 0.0941.

C12G G13U: the self-cleavage is 0.561.

With C12U A23G, the self-cleavage is 0.965.

As to U20G A41C, the self-cleavage was 1.13.

For the variant U2A A11C, the self-cleavage was 0.288.

G32C G34U: the self-cleavage was 0.163.

For G25C C66U, the self-cleavage was found to be 0.182.

Turning to A41U G54C, the self-cleavage turned out to be 0.891.

As for C12U U55G, the self-cleavage came to 0.181.

Regarding A35C A47U, the self-cleavage came out at 0.179.

Turning to A39U A71C, the self-cleavage was 0.694.

Turning to U8G A23C, the self-cleavage amounted to 1.21.

On to U7A U8A, for which the self-cleavage amounted to 1.14.

Take C16A U53G: the self-cleavage was 0.877.

On to G17A G25A, for which the self-cleavage amounted to 0.587.

For G19U C65A, the self-cleavage turned out to be 0.733.

Consider C16A A49C, for which the self-cleavage was 0.0771.

With A61U G68A, the self-cleavage was determined as 0.219.

With C3G G51U, the self-cleavage is 0.342.

For C4U A39G, the self-cleavage is 0.122.

As for U8C U53C, the self-cleavage was 0.766.

In the case of C3G U9A, the self-cleavage turned out to be 0.112.

As for U20A G34C, the self-cleavage was determined as 1.26.

With U14A A39C, the self-cleavage was determined as 0.515.

With A41G U63C, the self-cleavage amounted to 0.0946.

For G1A A39G, the self-cleavage is 0.152.

With C6G U53C, the self-cleavage was 0.329.

For the variant C10A A31U, the self-cleavage stood at 0.112.

On to G17A G42U, for which the self-cleavage amounted to 0.273.

In the case of A23G C65U, the self-cleavage is 0.349.

Take G32A A35C: the self-cleavage amounted to 0.177.

Turning to U7A C48U, the self-cleavage came to 0.0656.

Regarding G13U G69U, the self-cleavage is 0.246.

Consider U7C G56C, for which the self-cleavage amounted to 0.122.

As for A39U A49C, the self-cleavage was determined as 0.145.

Consider U2C, for which the self-cleavage was 0.171.

In the case of A35G A39U, the self-cleavage was 0.265.

Regarding U53G G54C, the self-cleavage was found to be 0.551.

Take C37G G56C: the self-cleavage is 0.176.

Regarding C12A G54A, the self-cleavage was 0.485.

Consider A11C A64U, for which the self-cleavage worked out at 0.237.

For C4G A11G, the self-cleavage amounted to 0.272.

In the case of C3G C48G, the self-cleavage was 0.196.

Regarding C6U C65U, the self-cleavage was determined as 0.323.

With A49C G69A, the self-cleavage stood at 0.139.

As for U33A C38G, the self-cleavage was 0.128.

In the case of C18U U67A, the self-cleavage turned out to be 0.109.

As to C18U U67C, the self-cleavage stood at 0.249.

For the variant C6U A26U, the self-cleavage came out at 0.414.

Take G54A U63C: the self-cleavage was found to be 0.216.

Consider C50G U55C, for which the self-cleavage came to 0.16.

As to U5A G51C, the self-cleavage stood at 0.324.

G42A C66A: the self-cleavage stood at 0.0634.

For A22U U55G, the self-cleavage came to 0.298.

Turning to A26U A30G, the self-cleavage amounted to 0.142.

With A41G U58A, the self-cleavage was found to be 0.46.

C12A A28C: the self-cleavage is 0.531.

With C18A G29C, the self-cleavage stood at 0.118.

As for C18A G29A, the self-cleavage was found to be 0.149.

With C4A G27C, the self-cleavage came to 0.093.

As to C48U A59U, the self-cleavage turned out to be 0.0991.

For the variant C3U A11C, the self-cleavage was found to be 0.402.

On to U2C G15A, for which the self-cleavage stood at 0.126.

In the case of A41C A45C, the self-cleavage came to 0.11.

Consider C16G G57A, for which the self-cleavage turned out to be 0.0803.

For G15A G57U, the self-cleavage is 0.3.

Take G1C U53G: the self-cleavage came to 0.046.

Take G54A A61U: the self-cleavage came to 0.254.

Take C18U C38A: the self-cleavage was 0.111.

As for G54C U62A, the self-cleavage stood at 0.186.

A26C A71C: the self-cleavage is 1.08.

For the variant U8G G54U, the self-cleavage came to 0.37.

For C12G G32A, the self-cleavage was determined as 0.143.

On to C4G A45G, for which the self-cleavage is 0.274.

As for C38G U63G, the self-cleavage worked out at 0.231.

In the case of C3U C48G, the self-cleavage is 0.159.

With A41G C66G, the self-cleavage stood at 0.255.

Regarding C12U U62G, the self-cleavage stood at 0.235.

As for G19A G25U, the self-cleavage is 0.441.

As to C38G C65A, the self-cleavage stood at 0.145.

Take G15C U33C: the self-cleavage came to 0.233.

As to A28G U67G, the self-cleavage was found to be 0.294.

Consider C12U A41U, for which the self-cleavage came to 0.928.

For the variant G27U A49G, the self-cleavage amounted to 0.214.

Consider C48U A49G, for which the self-cleavage stood at 0.153.

G1C U9G: the self-cleavage came out at 0.125.

Turning to U5C U8C, the self-cleavage came to 0.313.

With C10U A35U, the self-cleavage came to 0.568.

Regarding U9C A23C, the self-cleavage was 0.862.

In the case of A36G C38U, the self-cleavage amounted to 0.523.

With C12U G68A, the self-cleavage is 0.259.

G25C A44G: the self-cleavage came out at 0.085.

Consider G17U A45U, for which the self-cleavage was found to be 0.176.

Consider G32U C48G, for which the self-cleavage is 0.188.

Turning to U9G G56C, the self-cleavage was 0.0826.

Consider C18A A43C, for which the self-cleavage was found to be 0.107.

With C37G A41U, the self-cleavage stood at 0.541.

In the case of A30U G51U, the self-cleavage is 0.193.

With C50A U62G, the self-cleavage was 0.177.

For A11U U70C, the self-cleavage was 0.848.

For A30C G40C, the self-cleavage worked out at 0.0198.

On to C65U U67G, for which the self-cleavage was determined as 0.229.

With G25C U70G, the self-cleavage was found to be 0.402.

For the variant U14C G40U, the self-cleavage was 0.188.

Turning to G19C A45G, the self-cleavage came out at 0.277.

Regarding G27C G57U, the self-cleavage came to 0.174.

A35C U53G: the self-cleavage is 0.403.

Regarding A26C A59G, the self-cleavage amounted to 0.0796.

As for G29A U62C, the self-cleavage is 0.0819.

On to A26C A35C, for which the self-cleavage came to 0.726.

As to C12U G54A, the self-cleavage was 0.587.

With C38G U67C, the self-cleavage worked out at 0.119.

For U2G A35C, the self-cleavage was found to be 0.477.

As to G19U A49U, the self-cleavage worked out at 0.158.

In the case of U9G A61C, the self-cleavage came out at 0.115.

Turning to G17C G69U, the self-cleavage came out at 0.196.

For the variant G19C C38U, the self-cleavage was determined as 0.489.

U14G A47G: the self-cleavage came out at 0.157.

Regarding G1U G32A, the self-cleavage was determined as 0.146.

Turning to C12A U63G, the self-cleavage is 0.213.

Turning to U7G G21U, the self-cleavage was 0.453.

For the variant G42U U53C, the self-cleavage stood at 0.233.

For the variant A28U C38A, the self-cleavage worked out at 0.159.

Regarding G32A C48G, the self-cleavage was determined as 0.117.

Turning to C18G A26C, the self-cleavage amounted to 0.489.

Consider G57U C65U, for which the self-cleavage is 0.25.

For U8G U62A, the self-cleavage is 0.0946.

In the case of G34C A43U, the self-cleavage was 0.233.

Consider C4A G40C, for which the self-cleavage was determined as 0.0835.

Consider A11C U62C, for which the self-cleavage was found to be 0.278.

As to G19A G32U, the self-cleavage was determined as 0.175.

As for C4G C37U, the self-cleavage stood at 0.222.

Consider C50A U60C, for which the self-cleavage is 0.419.

Turning to C18G A22U, the self-cleavage is 0.801.

Take A22G U33C: the self-cleavage is 0.192.

For G17U U52C, the self-cleavage is 0.816.

As for C48A U63C, the self-cleavage amounted to 0.198.

Consider U20C C66U, for which the self-cleavage came out at 0.486.

For C16A C38G, the self-cleavage is 0.114.

Turning to C3G C16A, the self-cleavage was determined as 0.324.

These data come from the RNAGym collection of RNA variant scans (doi:10.7554/elife.80360).
